Measured values reported in patent US20250277199, “NOVEL CRISPR-CAS NUCLEASES FROM METAGENOMES” (Brain Biotech AG, published 2025).

Biological target: T1, BMC10 (uncultured bacterium (metagenome))
T1 chain: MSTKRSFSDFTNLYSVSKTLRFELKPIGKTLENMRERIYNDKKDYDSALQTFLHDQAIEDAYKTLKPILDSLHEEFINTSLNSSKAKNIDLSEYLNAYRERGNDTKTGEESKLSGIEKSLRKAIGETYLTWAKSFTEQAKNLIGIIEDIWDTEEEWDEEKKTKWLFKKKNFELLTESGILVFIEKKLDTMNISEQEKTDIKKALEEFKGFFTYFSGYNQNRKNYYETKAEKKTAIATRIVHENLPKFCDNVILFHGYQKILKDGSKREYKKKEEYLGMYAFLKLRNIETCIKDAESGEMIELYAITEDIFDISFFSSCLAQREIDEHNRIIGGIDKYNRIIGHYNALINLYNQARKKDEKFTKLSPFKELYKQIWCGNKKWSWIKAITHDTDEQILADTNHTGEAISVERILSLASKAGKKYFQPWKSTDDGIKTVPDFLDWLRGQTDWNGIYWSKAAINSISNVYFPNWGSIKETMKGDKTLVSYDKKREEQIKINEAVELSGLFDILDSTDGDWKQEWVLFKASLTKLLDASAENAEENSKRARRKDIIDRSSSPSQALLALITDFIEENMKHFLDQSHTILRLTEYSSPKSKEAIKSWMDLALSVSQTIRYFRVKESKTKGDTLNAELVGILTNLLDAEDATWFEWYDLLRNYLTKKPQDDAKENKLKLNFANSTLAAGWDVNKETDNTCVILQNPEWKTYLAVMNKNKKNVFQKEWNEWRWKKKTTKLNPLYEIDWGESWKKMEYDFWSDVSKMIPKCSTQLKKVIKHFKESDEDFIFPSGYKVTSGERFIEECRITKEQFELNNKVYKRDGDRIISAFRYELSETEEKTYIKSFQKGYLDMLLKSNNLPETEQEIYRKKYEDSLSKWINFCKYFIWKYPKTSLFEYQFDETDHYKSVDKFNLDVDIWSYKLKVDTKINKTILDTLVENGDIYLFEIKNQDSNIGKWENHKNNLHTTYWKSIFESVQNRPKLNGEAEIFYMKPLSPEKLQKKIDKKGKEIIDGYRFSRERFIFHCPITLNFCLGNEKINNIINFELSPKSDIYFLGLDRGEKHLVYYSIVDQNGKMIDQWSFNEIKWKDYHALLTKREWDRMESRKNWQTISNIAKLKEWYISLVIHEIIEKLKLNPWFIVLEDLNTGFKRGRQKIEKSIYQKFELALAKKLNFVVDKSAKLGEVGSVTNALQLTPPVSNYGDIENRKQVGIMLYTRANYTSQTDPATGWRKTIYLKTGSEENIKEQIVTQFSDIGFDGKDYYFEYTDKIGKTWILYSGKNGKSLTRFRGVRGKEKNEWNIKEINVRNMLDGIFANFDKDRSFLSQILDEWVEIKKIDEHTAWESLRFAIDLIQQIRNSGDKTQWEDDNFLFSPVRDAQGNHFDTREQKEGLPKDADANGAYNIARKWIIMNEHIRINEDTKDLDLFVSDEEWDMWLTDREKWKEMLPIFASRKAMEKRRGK
Assay: cell_activity; PAM not stated; E. coli depletion, 30 C
Outline: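 E. coli carrying arabinose-induced (0.2%) BMC nuclease, grown at 30° C., made electrocompetent and electroporated with 50-100 ng plasmid carrying gRNA against malQ. Transformants plated on selective M9-glucose agar with kanamycin/ampicillin (± nourseothricin), and growth scored after 48 h at 30° C.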

B1: malQ gRNA (BMC stem-loop + 24 nt spacer) ; malQ protospacer (ssRNA ; dsDNA)
RNA: GAUUUCUACUAUUGUAGAUGUGGCGGUACGUUGAUGCAUCGCG
DNA 1: GTGGCGGTACGTTGATGCATCGCG
DNA 2: CGCGATGCATCAACGTACCGCCAC
activity: > 99.9 % colony reduction
